# Test results reported in publication PMC7884425.
# How the values were obtained:
# [1] = target: full-length human PARP1 (activated by DNA) (human), P09874; assay: ITC; in the presence of DNA; conditions: natural protein; chains chain; remark: other sources report otherwise
# [2] = target: full-length human PARP1 (activated by DNA) (human), P09874; assay: ITC; HPF1 in the syringe; full-length PARP1 0.02 mM pre-incubated with 0.06 mM DNA hairpin at 4 °C for at least 60 min, in the cell; 25 °C; 20 mM Tris-pH 8.0, 150 mM NaCl, 1 mM TCEP, 1 mM MgCl2; conditions: remark: other sources report otherwise
# Chain of full-length human PARP1 (activated by DNA) (human), P09874 (P09874 whole entry): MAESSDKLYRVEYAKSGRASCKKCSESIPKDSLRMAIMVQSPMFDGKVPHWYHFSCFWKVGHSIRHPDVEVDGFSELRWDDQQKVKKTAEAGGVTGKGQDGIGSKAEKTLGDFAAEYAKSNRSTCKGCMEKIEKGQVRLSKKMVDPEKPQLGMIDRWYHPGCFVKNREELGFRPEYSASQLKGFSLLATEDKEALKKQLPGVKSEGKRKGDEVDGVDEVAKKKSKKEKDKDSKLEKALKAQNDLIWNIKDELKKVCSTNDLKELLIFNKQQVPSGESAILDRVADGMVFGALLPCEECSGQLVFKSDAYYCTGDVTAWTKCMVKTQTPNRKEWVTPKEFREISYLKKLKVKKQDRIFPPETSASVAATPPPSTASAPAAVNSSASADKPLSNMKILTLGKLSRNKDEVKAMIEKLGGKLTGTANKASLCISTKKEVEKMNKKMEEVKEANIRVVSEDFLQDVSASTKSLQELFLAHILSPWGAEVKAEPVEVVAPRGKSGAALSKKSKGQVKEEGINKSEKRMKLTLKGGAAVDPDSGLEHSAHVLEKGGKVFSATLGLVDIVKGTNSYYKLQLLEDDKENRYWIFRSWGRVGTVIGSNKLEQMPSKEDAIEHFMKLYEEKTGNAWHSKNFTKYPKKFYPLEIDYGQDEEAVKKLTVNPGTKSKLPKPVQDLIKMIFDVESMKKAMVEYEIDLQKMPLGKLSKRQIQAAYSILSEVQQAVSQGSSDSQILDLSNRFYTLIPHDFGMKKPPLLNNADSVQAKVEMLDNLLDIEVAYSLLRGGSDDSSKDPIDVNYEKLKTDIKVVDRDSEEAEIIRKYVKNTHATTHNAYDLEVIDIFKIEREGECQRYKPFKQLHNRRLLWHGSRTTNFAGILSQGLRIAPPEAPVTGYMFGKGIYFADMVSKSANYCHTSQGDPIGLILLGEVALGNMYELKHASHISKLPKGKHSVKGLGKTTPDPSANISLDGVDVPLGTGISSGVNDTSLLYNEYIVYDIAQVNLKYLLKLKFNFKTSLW
binder,measurement,setting,value
"human HPF1 (histone PARylation factor 1), wild-type, Q9NWY4 1-346 (natural protein) MVGGGGKRRPGGEGPQCEKTTDVKKSKFCEADVSSDLRKEVENHYKLSLPEDFYHFWKFCEELDPEKPSDSLSASLGLQLVGPYDILAGKHKTKKKSTGLNFNLHWRFYYDPPEFQTIIIGDNKTQYHMGYFRDSPDEFPVYVGINEAKKNCIIVPNGDNVFAAVKLFLTKKLREITDKKKINLLKNIDEKLTEAARELGYSLEQRTVKMKQRDKKVVTKTFHGAGLVVPVDKNDVGYRELPETDADLKRICKTIVEAASDEERLKAFAPIQEMMTFVQFANDECDYGMGLELGMDLFCYGSHYFHKVAGQLLPLAYNLLKRNLFAEIIEEHLANRSQENIDQLAA",Ka,[1],330000 M⁻¹
same,Kd,[2],2800 nM
